Results: the supplement of paper PMC7125110
± gives the standard error. Variants at the floor of the assay were thinned out.

B1: glmS ribozyme (parent)
chain: AUAAAAGCGCCAGAACUACAGAAAUGUAGUUGACGAGGAGGAGGUUUAUCGAAUUUUCGGCGGAUGCCUCCAAA

Assays:
Conditions in all cases: with glucosamine-6-phosphate
[1] = variants of: B1; assay: self-cleavage kobs at 40 uM GlcN6P; higher = faster cleavage; RNA array
In short: (§1)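 Using a hybridised Cy3 probe at 37 °C, barcoded ribozyme variants transcribed in situ by E. coli RNA polymerase on sequenced MiSeq chips were monitored across tiles imaged over ~14 h. The flow contained glucosamine-6-phosphate from 40 μM to 10 mM in HEPES/KCl/Mg(OAc)2 buffer. Signals were normalised to baseline and to non-cleaving reference variants before per-tile medians were fit to one- or two-exponential decays to yield kobs. Weighted Michaelis–Menten fits across concentrations gave kcat and KM.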

[2] = variants of: B1; assay: self-cleavage kobs at 10000 uM GlcN6P; higher = faster cleavage; RNA array
In short: as §1

[3] = variants of: B1; assay: self-cleavage kobs at 640 uM GlcN6P; higher = faster cleavage; RNA array
In short: as §1

[4] = variants of: B1; assay: self-cleavage kobs at 2500 uM GlcN6P; higher = faster cleavage; RNA array
In short: as §1

[5] = variants of: B1; assay: self-cleavage kobs at 160 uM GlcN6P; higher = faster cleavage; RNA array
In short: as §1

Row | Variant | self-cleavage kobs at 40 uM GlcN6P [1] | self-cleavage kobs at 10000 uM GlcN6P [2] | self-cleavage kobs at 640 uM GlcN6P [3] | self-cleavage kobs at 2500 uM GlcN6P [4] | self-cleavage kobs at 160 uM GlcN6P [5]
1 | A14G C50U G66U C68A | 5.56e-05 ± 2.7e-05 s⁻¹ | 4.35e-05 ± 1.8e-05 s⁻¹ | – | – | –
2 | C16A A48G | < 1e-05 s⁻¹ | < 1e-05 s⁻¹ | < 1e-05 s⁻¹ | < 1e-05 s⁻¹ | –
3 | A15G U30A G41A G51U G62A | < 1e-05 s⁻¹ | – | – | < 1e-05 s⁻¹ | –
4 | A14U G43A U55A C61A | < 1e-05 s⁻¹ | < 1e-05 s⁻¹ | – | – | –
5 | C16A G44A | < 1e-05 s⁻¹ | – | – | – | < 1e-05 s⁻¹
6 | C16A G44U | < 1e-05 s⁻¹ | – | < 1e-05 s⁻¹ | – | < 1e-05 s⁻¹
7 | A14G C67A | 0.000654 ± 7e-05 s⁻¹ | 0.0413 ± 0.01 s⁻¹ | 0.00492 ± 0.00077 s⁻¹ | 0.00642 ± 0.0014 s⁻¹ | 0.00108 ± 0.00017 s⁻¹
8 | A14G C67U | 0.000746 ± 0.00014 s⁻¹ | – | 0.00612 ± 0.00075 s⁻¹ | 0.0171 ± 0.0057 s⁻¹ | 0.00183 ± 0.00033 s⁻¹
9 | C16U U31G C50G C70A | 0.000109 ± 2.3e-05 s⁻¹ | 6.25e-05 ± 1.3e-05 s⁻¹ | – | – | –
10 | A15C G43U U54C | < 1e-05 s⁻¹ | < 1e-05 s⁻¹ | – | – | –
11 | C16A U31A U47C G63A | < 1e-05 s⁻¹ | – | – | – | –
12 | C16A G29C U56G A64G | 2.81e-05 ± 1.4e-05 s⁻¹ | 0.00203 ± 0.00038 s⁻¹ | – | – | –
13 | A14U G37A C50U G63C | < 1e-05 s⁻¹ | – | – | – | –
14 | A14C C67U C70U | < 1e-05 s⁻¹ | 6.08e-05 ± 1.4e-05 s⁻¹ | – | – | –
15 | A14G G41U U45A C70U | 0.000293 ± 5.4e-05 s⁻¹ | 0.000993 ± 0.00019 s⁻¹ | 0.000588 ± 0.00015 s⁻¹ | 0.00191 ± 0.00054 s⁻¹ | 0.00043 ± 0.00013 s⁻¹
16 | C16G U30G C50G | 0.00013 ± 4.8e-05 s⁻¹ | 7.3e-05 ± 1.9e-05 s⁻¹ | 6.59e-05 ± 3.2e-05 s⁻¹ | 0.000324 ± 5e-05 s⁻¹ | –
17 | A14G U30G | 0.001 ± 0.00014 s⁻¹ | 0.0807 ± 0.027 s⁻¹ | 0.00706 ± 0.0011 s⁻¹ | 0.0179 ± 0.0054 s⁻¹ | 0.00212 ± 0.00046 s⁻¹
18 | A14G G29A | 0.000403 ± 6.2e-05 s⁻¹ | 0.0317 ± 0.0076 s⁻¹ | 0.00394 ± 0.00079 s⁻¹ | 0.00353 ± 0.00081 s⁻¹ | –
19 | A15G U69C | 0.00027 ± 7e-05 s⁻¹ | – | 0.00141 ± 0.00058 s⁻¹ | 0.00345 ± 0.0012 s⁻¹ | –
20 | C16G G44U U65A | < 1e-05 s⁻¹ | – | – | < 1e-05 s⁻¹ | –
21 | A14C G44C C50U U65G | < 1e-05 s⁻¹ | – | – | – | –
22 | G13U G38U A52G C68G U69G | 0.000165 ± 5.9e-05 s⁻¹ | 8.14e-05 ± 2.1e-05 s⁻¹ | – | – | –
23 | C16U U31A A36G | < 1e-05 s⁻¹ | – | – | – | –

Row | Variant | self-cleavage kobs at 40 uM GlcN6P [1] | self-cleavage kobs at 10000 uM GlcN6P [2] | self-cleavage kobs at 640 uM GlcN6P [3] | self-cleavage kobs at 2500 uM GlcN6P [4] | self-cleavage kobs at 160 uM GlcN6P [5]
24 | C16A G40C | < 1e-05 s⁻¹ | – | 4.46e-05 ± 1.5e-05 s⁻¹ | 0.000112 ± 1.8e-05 s⁻¹ | –
25 | A14U G37A G43U C68G C70G | < 1e-05 s⁻¹ | – | – | – | –
26 | C16A G29U U30G U49G C70U | < 1e-05 s⁻¹ | – | – | – | –
27 | A15U G29C G43C | < 1e-05 s⁻¹ | – | – | – | –
28 | A14G U45A A48U | 0.000108 ± 2.6e-05 s⁻¹ | 0.00563 ± 0.001 s⁻¹ | – | – | –
29 | A15U G63U | < 1e-05 s⁻¹ | < 1e-05 s⁻¹ | < 1e-05 s⁻¹ | – | < 1e-05 s⁻¹
30 | A15U G35U | < 1e-05 s⁻¹ | < 1e-05 s⁻¹ | < 1e-05 s⁻¹ | < 1e-05 s⁻¹ | < 1e-05 s⁻¹
31 | A14U U47A | 0.000141 ± 1.5e-05 s⁻¹ | 0.00513 ± 0.00047 s⁻¹ | – | – | 0.000575 ± 0.00028 s⁻¹
32 | G13U G40U A48U C67A | < 1e-05 s⁻¹ | < 1e-05 s⁻¹ | – | – | –
33 | A15U G40U G51U C71U | < 1e-05 s⁻¹ | – | – | – | –
34 | A15C G35U | < 1e-05 s⁻¹ | – | < 1e-05 s⁻¹ | < 1e-05 s⁻¹ | < 1e-05 s⁻¹
35 | G13U G38C G43U | < 1e-05 s⁻¹ | < 1e-05 s⁻¹ | – | – | –
36 | A15C U57C | < 1e-05 s⁻¹ | 5.67e-05 ± 6.7e-06 s⁻¹ | – | – | –
37 | A15G G60C | < 1e-05 s⁻¹ | – | – | – | –
38 | C16G G29U C71U | 0.000193 ± 4.3e-05 s⁻¹ | 0.013 ± 0.0037 s⁻¹ | 0.00358 ± 0.00079 s⁻¹ | 0.00344 ± 0.0014 s⁻¹ | –
39 | A15G G32A | 6.35e-05 ± 1.4e-05 s⁻¹ | 0.00311 ± 0.00077 s⁻¹ | 0.000628 ± 7.7e-05 s⁻¹ | 0.00103 ± 0.00018 s⁻¹ | 0.000114 ± 2.3e-05 s⁻¹
40 | C16G G29U | 0.000398 ± 5.9e-05 s⁻¹ | 0.0203 ± 0.0044 s⁻¹ | 0.00183 ± 0.00046 s⁻¹ | 0.00758 ± 0.0015 s⁻¹ | 0.00129 ± 0.00034 s⁻¹
41 | G13U U45C | < 1e-05 s⁻¹ | 6.21e-05 ± 1.4e-05 s⁻¹ | – | – | < 1e-05 s⁻¹
42 | A14C C50G A64G | 4.29e-05 ± 2.1e-05 s⁻¹ | – | – | – | –
43 | A15U U30G G41U | 0.000122 ± 2.7e-05 s⁻¹ | 0.0015 ± 0.00032 s⁻¹ | – | 0.000705 ± 0.00027 s⁻¹ | –
44 | A14C U49A | < 1e-05 s⁻¹ | < 1e-05 s⁻¹ | < 1e-05 s⁻¹ | – | –
45 | A15G C71U | 0.00111 ± 0.0001 s⁻¹ | 0.0519 ± 0.014 s⁻¹ | 0.00696 ± 0.0013 s⁻¹ | 0.0534 ± 0.021 s⁻¹ | 0.00193 ± 0.00039 s⁻¹
46 | A14G C16U G37A C67G C70G | < 1e-05 s⁻¹ | – | – | < 1e-05 s⁻¹ | –
